Source: paper PMC7271948, “A baculoviral system for the production of human β-glucocerebrosidase enables atomic resolution analysis” (Acta Crystallographica. Section D, Structural Biology, 2020)

Substrate: Cc1cc(=O)oc2cc(O[C@@H]3O[C@H](CO)[C@@H](O)[C@H](O)[C@H]3O)ccc12
Assay: purified protein

B1: β-glucocerebrosidase (GBA) (Homo sapiens) (protein)
chain: ARPCIPKSFGYSSVVCVCNATYCDSFDPPTFPALGTFSRYESTRSGRRMELSMGPIQANHTGTGLLLTLQPEQKFQKVKGFGGAMTDAAALNILALSPPAQNLLLKSYFSEEGIGYNIIRVPMASCDFSIRTYTYADTPDDFQLHNFSLPEEDTKLKIPLIHRALQLAQRPVSLLASPWTSPTWLKTNGAVNGKGSLKGQPGDIYHQTWARYFVKFLDAYAEHKLQFWAVTAENEPSAGLLSGYPFQCLGFTPEHQRDFIARDLGPTLANSTHHNVRLLMLDDQRLLLPHWAKVVLTDPEAAKYVHGIAVHWYLDFLAPAKATLGETHRLFPNTMLFASEACVGSKFWEQSVRLGSWDRGMQYSHSIITNLLYHVVGWTDWNLALNPEGGPNWVRNFVDSPIIVDITKDTFYKQPMFYHLGHFSKFIPEGSQRVGLVASQKNDLDAVALMHPDGSAVVVVLNRSSKDVPLTIKDPAVGFLETISPGYSIHTYLWRRQ
In the case of B1, the Km is reported as 1.288 ± 0.051 mM, the Vmax is reported as 11.7 µM/min and the kcat is reported as 19.6 s⁻¹.
